{"source": "patent US9243044B2", "about": "“Anticoagulant polypeptide and applications thereof” (GUANGDONG MEDICAL COLLEGE, priority 2011, dated 2016)", "molecules": {"B1": {"name": "NAPTin-1 (protein)", "chain": "NPSCGENERHDECSRKECDPKCKYDGTEEKDDEKPVVCLTRVCYGDCICRDGFLRNKNGACVKAEDCELD", "modifications": "Sequence derived from Ancylostoma caninum or Synthetic"}}, "key": {"SD rats [1]": {"system": "SD rats", "test": "Rat arterio-venous shunt thrombus formation model", "format": "in vivo", "method": "50 SPF grade male SD rats (provided by the laboratory animal center of Guangdong Medical College, 300-350 g body weight) were randomly divided into saline control group, positive control group (100 U·kg^−1 heparin sodium, Shanghai No. 1 Biochemical & Pharmaceutical Co. Ltd), and rNAPT-1 low dose (100 μg·kg^−1), middle dose (1 mg·kg^−1), high dose group (5 mg·kg^−1), 10 rats each group, respectively. These rats were anaesthetized with 10% chloral hydrate (250 mg/kg) by intraperitoneal injection. The right common carotid artery and left external jugular vein was exposed and dissected bluntly from the surrounding tissue after a surgical incision. One end of a polyethylene pipe (1.5 mm of diameter, 22 cm of length) with a 5 cm length of No. 4 operation suture in it and filled with 50 U/mL heparin solution was inserted into the right common carotid artery, and the other end was inserted into the left external […] vein. 5 min after tail intravenous injection of drugs, the artery clamp was opened, and blood flow from the right common carotid artery to the left external jugular vein through the polyethylene pipe. After 15 min of blood flow, the suture line was quickly removed and weighed. The net weight of thrombus is total weight minus suture weight; inhibition rate=(wet weight of thrombus of saline control group−wet weight of thrombus of administration group)/wet weight of thrombus of saline control group×100%."}, "normal human plasma [2]": {"system": "normal human plasma", "test": "PT assay in normal human plasma", "format": "biochemical", "settings": "for PT: normal human plasma", "method": "(§1) The recombinant anticoagulant polypeptides were expressed in Escherichia coli and purified in our laboratory. Anticoagulant activity was determined by measuring the aPTT and PT.\nFor the PT assay, 10 μl recombinant protein at various concentration was mixed with 45 μl normal human plasma and incubated for 15 mins at 37° C. 45 μl prewarmed PT reagent (MDC Hemostasis, Germany) was then added and the clotting time was measured with the absorbance at 630 nm by using an E1x808 kinetic microtiter reader (BioTek, United States). Each concentration was repeated 3 times."}, "human fXIa": {"target": "T1, human fXIa (Homo sapiens, UniProt P03951)", "T1 construct": "Human coagulation factors IIa (thrombin), Xa, XIa, XIIa, EGR-fXa; purchased Haematologic Technologies Inc (United States)", "T1 sequence (P03951 19-387 limits assumed)": "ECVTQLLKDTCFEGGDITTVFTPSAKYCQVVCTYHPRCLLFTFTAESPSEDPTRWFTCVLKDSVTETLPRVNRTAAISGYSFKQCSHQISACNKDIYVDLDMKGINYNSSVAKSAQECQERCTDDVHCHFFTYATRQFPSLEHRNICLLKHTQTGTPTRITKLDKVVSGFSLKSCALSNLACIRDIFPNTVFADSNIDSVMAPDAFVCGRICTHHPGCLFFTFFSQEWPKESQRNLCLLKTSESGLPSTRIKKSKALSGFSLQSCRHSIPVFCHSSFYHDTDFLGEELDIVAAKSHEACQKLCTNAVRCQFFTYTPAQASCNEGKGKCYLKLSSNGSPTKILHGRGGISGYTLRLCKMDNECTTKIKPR", "T1 sequence (P03951 388-625 limits assumed)": "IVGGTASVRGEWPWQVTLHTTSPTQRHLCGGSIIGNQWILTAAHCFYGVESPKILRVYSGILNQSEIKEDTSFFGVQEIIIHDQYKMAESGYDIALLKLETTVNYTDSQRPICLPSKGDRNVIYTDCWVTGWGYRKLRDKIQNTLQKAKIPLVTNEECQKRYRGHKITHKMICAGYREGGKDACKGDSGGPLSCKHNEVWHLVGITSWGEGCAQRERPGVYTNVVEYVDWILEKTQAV", "test": "Chromogenic assay, fXIa", "format": "biochemical", "from_the_text": "(§2) The recombinant anticoagulant polypeptides in the present invention were expressed in E. coli and purified in our laboratory, of which the activities against coagulation factors were investigated by chromogenic assays. Human coagulation factors IIa (thrombin), Xa, XIa, XIIa, EGR-fXa were products of Haematologic Technologies Inc (United States). Recombinant fVIIa was products of Novo-Nordisk (Denmark). Recombinant soluble tissue factor (sTF) was purchased from Protgen (Beijing, China). The following chromogenic substrates were used for these coagulation factor assays: S2765 for human fXa, S2288 for human fVIIa and fIIa, 52366 for human fXIa and fXIIa, respectively.\n(§3) The chromogenic assays were carried out in a total reaction volume of 100 μl in individual wells of a 96-well microtiter plate. 50 μl fIIa, fXa, fXIa, or fXIIa (final concentration: 1 nM) was incubated with 10 μl recombinant anticoagulant polypeptide at various concentrations (or PBS control group) Assays for the detection activity of fVIIa: 50 μl fVIIa+TF (1 μM) and EGR-fXa (final concentration 500 nM) was incubated for 15 mins at 25° C., respectively. After the addition of 40 μl of prewarmed chromogenic substrate to a final concentration of 400 μM, the changes of absorbance at 405 nm were monitored by using an E1x808 kinetic microtiter reader. The data were used to calculate the velocities of response."}, "SD rats [3]": {"system": "SD rats", "test": "Rat carotid artery thrombosis (FeCl3)", "format": "in vivo", "settings": "for Inhibition rate %: vs model group", "method": "50 SPF grade male SD rats (provided by the laboratory animal center of Guangdong Medical College, 300-350 g body weight) were randomly divided into sham operation group (except without the FeCl3, the remaining steps with other groups), model group, and rNAPTin-1 low dose (100 μg·kg^−1), middle dose (1 mg·kg^−1), high dose group (5 mg·kg^−1), 10 rats each group, respectively. These rats were anaesthetized with 10% chloral hydrate (250 mg/kg) by intraperitoneal injection. The right carotid artery was isolated by making a midline cervical incision followed by blunt dissection to expose a 1 cm segment of the vessel from the carotid sheath, and then a 0.6 cm wide sealing adhesive strip was inserted. After 5 mins of tail intravenous injection of drugs, separation spare the common carotid artery segment was ring wrapped by filter paper (1.0 cm×0.5 cm) soaked in 20% FeCl3 solution and sealed with strip seal. After 15 mins, the filter strips was remove. 40 mins later, the blood vessels ligation at both ends of filter paper was ligated. The vascular segment of the paper strip wrapped was precisely cut followed sucked excess blood in blood vessels with a clean filter paper, and wet weight including thrombotic vascular was accurately weighed, then weighed again after removing blood clots. The difference is the quality of the thrombus within the 0.5 cm long vessel segment. In sham operation, FeCl3 immersion filter strips were replaced with normal saline immersion filter strips."}, "fVIIa/TF": {"target": "T2, fVIIa/TF (Homo sapiens, UniProt P08709)", "T2 construct": "Recombinant fVIIa was products of Novo-Nordisk (Denmark); purchased Novo-Nordisk (Denmark) for fVIIa; Protgen (Beijing, China) for sTF; Haematologic Technologies Inc for EGR-fXa", "T2 sequence (P08709 61-212 limits assumed)": "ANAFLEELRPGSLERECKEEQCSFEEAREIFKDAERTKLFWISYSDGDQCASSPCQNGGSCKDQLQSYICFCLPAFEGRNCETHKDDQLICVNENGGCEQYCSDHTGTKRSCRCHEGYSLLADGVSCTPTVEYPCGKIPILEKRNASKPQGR", "T2 sequence (P08709 213-466 limits assumed)": "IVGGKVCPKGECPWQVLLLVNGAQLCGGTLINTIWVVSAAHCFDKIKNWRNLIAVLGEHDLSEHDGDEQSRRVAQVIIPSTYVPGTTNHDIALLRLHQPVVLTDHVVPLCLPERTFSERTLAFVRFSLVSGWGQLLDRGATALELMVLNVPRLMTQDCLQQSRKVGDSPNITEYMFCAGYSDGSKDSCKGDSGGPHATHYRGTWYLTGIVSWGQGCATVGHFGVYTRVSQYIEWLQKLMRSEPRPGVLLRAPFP", "T2 sequence (P13726 33-251 partner limits assumed)": "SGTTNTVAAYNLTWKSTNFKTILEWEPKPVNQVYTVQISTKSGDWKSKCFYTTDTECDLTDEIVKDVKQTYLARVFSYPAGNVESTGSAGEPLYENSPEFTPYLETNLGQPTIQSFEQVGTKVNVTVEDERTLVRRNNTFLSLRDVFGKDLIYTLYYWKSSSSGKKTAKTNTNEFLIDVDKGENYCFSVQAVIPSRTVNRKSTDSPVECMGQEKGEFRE", "test": "Chromogenic assay, fVIIa/TF", "format": "biochemical", "from_the_text": "as §2, §3"}, "normal human plasma [4]": {"system": "normal human plasma", "test": "aPTT assay in normal human plasma", "format": "biochemical", "settings": "for aPTT: normal human plasma; for multiples of prolonging aPTT: ratio of mean aPTT to blank control", "method": "as §1\nFor the aPTT assay, 10 μl recombinant protein at various concentrations was mixed with 50 μl fresh normal human plasma, 20 μl aPTT reagent (MDC Hemostasis, Germany) and incubated for 15 mins at 37° C. 20 μl 0.05 mol/L prewarmed CaCl2 was then added to initiate the clotting reaction. The clotting time was measured with the absorbance at 630 nm by using an E1x808 kinetic microtiter reader (BioTek, United States). Each concentration was repeated 3 times. The ratio of the mean aPTT value of each concentration to blank control group is multiples of prolonging the aPTT."}}, "note": "Entries after “also recorded” stand apart in the source; their conditions may differ. Marks after values point to notes of the source that are not given here.", "data": [{"molecule": "B1", "values": [{"measurement": "wet weight of thrombus", "setting": "SD rats [1]; 100 μg·kg^−1 i.v.", "result": "8.5 ± 1.8", "unit": "mg"}, {"measurement": "Inhibition rate %", "setting": "SD rats [1]; 100 μg·kg^−1 i.v., vs saline control", "result": 80.5, "unit": "%"}, {"measurement": "wet weight of thrombus", "setting": "SD rats [1]; 1 mg·kg^−1 i.v.", "result": "1.5 ± 0.3", "unit": "mg"}, {"measurement": "Inhibition rate %", "setting": "SD rats [1]; 1 mg·kg^−1 i.v., vs saline control", "result": 97, "unit": "%"}, {"measurement": "wet weight of thrombus", "setting": "SD rats [1]; 5 mg·kg^−1 i.v.", "result": "0.3 ± 0.2", "unit": "mg"}, {"measurement": "Inhibition rate %", "setting": "SD rats [1]; 5 mg·kg^−1 i.v., vs saline control", "result": 99, "unit": "%"}, {"measurement": "effect on arterio-venous shunt thrombosis (in words)", "setting": "SD rats [1]; vs saline control, P<0.01", "result": "could inhibit rat arterio-venous shunt thrombosis"}, {"measurement": "prolongation of PT (in words)", "setting": "normal human plasma [2]; 100 nM and 500 nM", "result": "couldn't prolong PT"}, {"measurement": "PT", "setting": "normal human plasma [2]; 100 nM", "result": "12.4 ± 0.9", "unit": "s"}, {"measurement": "PT", "setting": "normal human plasma [2]; 500 nM", "result": "12.1 ± 0.4", "unit": "s"}, {"measurement": "inhibition of the activity of fXIa", "setting": "human fXIa; 100 nM", "result": "more than 90%"}, {"measurement": "inhibition of the activity of fXIa (in words)", "setting": "human fXIa; 200 nM", "result": "almost completely inhibited"}, {"measurement": "wet weight of thrombus", "setting": "SD rats [3]; 100 μg·kg^−1 i.v.", "result": "1.5 ± 0.2", "unit": "mg"}, {"measurement": "Inhibition rate %", "setting": "SD rats [3]; 100 μg·kg^−1 i.v.", "result": 66.7, "unit": "%"}, {"measurement": "wet weight of thrombus", "setting": "SD rats [3]; 1 mg·kg^−1 i.v.", "result": "0.5 ± 0.3", "unit": "mg"}, {"measurement": "Inhibition rate %", "setting": "SD rats [3]; 1 mg·kg^−1 i.v.", "result": 88.9, "unit": "%"}, {"measurement": "wet weight of thrombus (mg)", "setting": "SD rats [3]; 5 mg·kg^−1 i.v.", "result": "0* mg"}, {"measurement": "Inhibition rate %", "setting": "SD rats [3]; 5 mg·kg^−1 i.v.", "result": 100, "unit": "%"}, {"measurement": "effect on fVIIa/TF activity (in words)", "setting": "fVIIa/TF; 100 nM", "result": "without affecting; also recorded: no significant inhibitory activity"}, {"measurement": "effect on fVIIa/TF activity (in words)", "setting": "fVIIa/TF; 200 nM", "result": "without affecting"}, {"measurement": "prolongation of aPTT (in words)", "setting": "normal human plasma [4]; 100 nM and 500 nM", "result": "significantly prolong aPTT"}, {"measurement": "aPTT", "setting": "normal human plasma [4]; 100 nM", "result": "79.2 ± 3.5", "unit": "s"}, {"measurement": "multiples of prolonging aPTT", "setting": "normal human plasma [4]; 100 nM", "result": 1.98}, {"measurement": "aPTT", "setting": "normal human plasma [4]; 500 nM", "result": "228.3 ± 7.4", "unit": "s"}, {"measurement": "multiples of prolonging aPTT", "setting": "normal human plasma [4]; 500 nM", "result": 5.69}]}]}
